{
  "source": "the DeepSol protein solubility set",
  "test": "soluble on expression in E. coli; label from the status in PepcDB or PDB records",
  "data": [
    {"sequence": "MAKEKKRGFFSWLGFGQKEQTPEKETEVQNEQPVVEEIVQAQEPVKASEQAVEEQPQAHTEAEAETFAADVVEVTEQVAESEKAQPEAEVVAQPEPVVEETPEPVAIEREELPLPEDVNAEAVSPEEWQAEAETVEIVEAAEEEAAKEEITDEELETALAAEAAEEAVMVVPPAEEEQPVEEIAQEQEKPTKEGFFARLKRSLLKTKENLGSGFISLFRGKKIDDDLFEELEEQLLIADVGVETTRKIITNLTEGASRKQLRDAEALYGLLKEEMGEILAKVDEPLNVEGKAPFVILMVGVNGVGKTTTIGKLARQFEQQGKSVMLAAGDTFRAAAVEQLQVWGQRNNIPVIAQHTGADSASVIFDAIQAAKARNIDVLIADTAGRLQNKSHLMEELKKIVRVMKKLDVEAPHEVMLTIDASTGQNAVSQAKLFHEAVGLTGITLTKLDGTAKGGVIFSVADQFGIPIRYIGVGERIEDLRPFKADDFIEALFARED", "values": [
      {"measurement": "soluble on expression in E. coli", "result": "soluble"}
    ]},
    {"sequence": "MSDGSMDDDGRLFPDLGSSTHDNREIRVRFLNRCAYPVDVFWLNPSKQPTKYGTLAQKKYLDIKTFKDHPWVARRSFDGCKVLVNEKEVFWPEPAPRMNLIVRNHCVITMKVQSLREIAGRSFLRHNPTEVPNKIKGLPRELQFEVKHFLDRKQEYSEIVCRSIPPPGPQRPQQ", "values": [
      {"measurement": "soluble on expression in E. coli", "result": "not soluble"}
    ]},
    {"sequence": "MGHHHHHHSHMPARTDSVIIADQTPTPTRFLKNCEEVGLFNELASSFEHEFKKAADEDEKKARSRTVAKKLVAAAGPLDMSLPSTPDIKIKEEEPVEVDSSPPDSPASSPCSPPLKEKEVTPKPVLISTPTPTIVRPGSLPLHLGYDPLHPTLPSPTSVITQAPPSNRQMGSPTGSLPLVMHLANGQTMPVLPGPPVQMPSVISLARPVSMVPNIPGIPGPPVNSSGSISPSGHPIPSEAKMRLKATLTHQVSSINGGCGMVVGTASTMVTARPEQSQILIQHPDAPSPAQPQVSPAQPTPSTGGRRRRTVDEDPDERRQRFLERNRAAASRCRQKRKLWVSSLEKKAEELTSQNIQLSNEVTLLRNEVAQLKQLLLAHKDCPVTALQKKTQGYLESPKESSEPTGSPAPVIQHSSATAPSNGLSVRSAAEAVATSVLTQMA", "values": [
      {"measurement": "soluble on expression in E. coli", "result": "soluble"}
    ]},
    {"sequence": "MSLDKIKAVIFDMDGVLIDAKEWHYEALNKALRLFGFEISRYDHLVTFDGLPTAKKLEMMTVERGLPKSLHQLINDMKQIYTMEYVYMKCKPLFVHQYALSRLKSEGFRLALASNSVRVTIDMMMEKADLNQYLDFSLSNQDVKKSKPDPEIYITAINRLGLSPEECLVVEDNQNGVKAALASGANLLKVETINDVTYSNIINRINEIENNIEGHHHHHH", "values": [
      {"measurement": "soluble on expression in E. coli", "result": "soluble"}
    ]},
    {"sequence": "MRKSMISFLEKKAKNEKITMVSAYDYHSARILDNSDIDIILVGDSLAMTVLGMQDTLSVTMDEMLIFTKAVSRGAKKSFVLADMPFMSYQSSDRDAILNASRFIKESHANGVKVEGGIEIASKIKLISQSGIPVVAHLGLTPQAVNMLGGYRVQGKDLQSAQKIIDDAKAVQDAGACMLVLECVPVKLAQKISSILEIPTIGIGSGKYCDGQVLVYHDLLGLNKDFKAKFVKHFDKIDPQVGVEKYRDEVKSGIFPSQEHSFDYLDDELLDKLY", "values": [
      {"measurement": "soluble on expression in E. coli", "result": "not soluble"}
    ]},
    {"sequence": "MNKDTVLNVTVMGREFRIHCPGEEREELLLAVSCLNRKMQEIKSAGKIAGTEQIAIAAAISMTHELLSIRSQRGFDMNEFKRRIELLECRVSDALTDQGIYKNS", "values": [
      {"measurement": "soluble on expression in E. coli", "result": "not soluble"}
    ]},
    {"sequence": "MKKMAFAAIALGLVACAPAQQQRLVYPPTVEVERIQLTSFSLPAPGRAAVAGVRLELNVDNPNPLPVRLVQLAGVLVLDGQEAGTVTVPDIRLPGQGRARQVAQLTLPVTFKTATTFLNIARGQEVSYRLDGTLTADLGPLGQPTFGPFTLTQGVWKQAPLSVF", "values": [
      {"measurement": "soluble on expression in E. coli", "result": "soluble"}
    ]},
    {"sequence": "MLAAGMSRRMGFNKLLAPLCGKRVLWHVLELVARFEGVLEGAVVVTSGEVADVLRRERPPGRRGLFRVVVNREQWRGLSHSIRLGVEASPGARAYLFFNGDRPFVSKHTVARVLALYMARRPLIAAPMAGGAIAPPVVVDSRLRGELLRLSGDTGVRSLFGKYRDSLAVVEVDDPGLHLDVDTPEDLERASKMCSQLGGGPREKPLEHHHHHH", "values": [
      {"measurement": "soluble on expression in E. coli", "result": "not soluble"}
    ]},
    {"sequence": "MGSDKIHHHHHHMIAVLRINHRPFRDKRITTHVALTARAFGASSILVDEKDETLEQTINKVVENFGGNFFIKSGVDWKREFRNFKGIRVHLTMYGRPLEDVVKEIRESKKDVMILVGSEKVPFEAYEIADYNVSVTNQPISEVSALAIFLDRFYDGEELNWRFTGKINVYPSERGKKVKIIPDEQGCLDLLYKYGASDYLINHVKSVKELAVAIAKKTNADINLVTAGALLHDIGRTQVQGITHAVVGADILRREGIDDRVVSIVEKHIGAGIQSEEAVKLGLPPDNYVPETIEEMIVAHADNLFAGDKRLKLQQVVDNYRKKGLEDAAERIAKLHKFLSTVIGQDMDEI", "values": [
      {"measurement": "soluble on expression in E. coli", "result": "not soluble"}
    ]},
    {"sequence": "EVVEDVLTNAIENGSSIQDIELTLKDMPQFDRERARTTAITEVLAASSAAQHESYAQSPAVKKKKWRHSGGKKNNPRENHIDLDGTVIGVDEEFQIPGSSETCMFPRDPKLSTRERVNCHCVLS", "values": [
      {"measurement": "soluble on expression in E. coli", "result": "not soluble"}
    ]},
    {"sequence": "MAHHHHHHMASTGNGGDSKAAASSLSPQKAGMVAPLTSAPPLTASTTSPSRLNSMRTANASASSKNNAPTGPSKKGGTAVKPSPEVGGKAAAGSSEPEPRASVNIDRQSKPNANSVNASNVADSTNAPSGKRPDHGRRGRRQECSSWFDAEKPAKADRPADKELNQNVQIVQDDIPDAEQAHREQAERAQRQKEKLARHISESPTGFQATLPRLNELDVTNSWDKLLRMMRSEFDMSCLTSCLARELDEDVAWNPEMLLVQLTSDMLDAAELQKDGGEAYVPVDASDIGQMTGGEVARRRKEKRSTTTAGGAAPAAGAAGGTEREPEKGSEKPAAASPTPAFQAAASKALRKQTTTDPAAAAPSSKKARDTDNAASTSTANSSSTRKRSAAGSRSGEASGGGGNNTNASSSTAKGDSADDTKSSKSTSLKAQVSKLFSK", "values": [
      {"measurement": "soluble on expression in E. coli", "result": "not soluble"}
    ]},
    {"sequence": "MSLLDIIFPPNNNDDDFYGQHFSLIDSIIVKVAQDSNLSQSLRVYQYLYSWRLFGCMVAVVNNNKTLELGDKRGAIEALYEFITRFRIENPTGDVERKVKLKILEIYMIILNLLKSFENNQDQWFLKTNSYKETTTTRRREGHHHHHH", "values": [
      {"measurement": "soluble on expression in E. coli", "result": "soluble"}
    ]},
    {"sequence": "MLRRCSVLLNDPPLVSGGPVVGLMRDTGTRTTIRPSIMDAQIAQSALEVKMSSLLAREMQAEKMEAEREPPLKRKWVKAPVSQLSTSLSRRDWFRLMSFNMMTDAWGPGHTTPVEAVRVRVPEFTRNPECDDPNACCDYDPSIDKEFPPFLTPEHRRKHLVELLRCYDPDIACLNEVKRTFFNTELWRYVRFLGYGTLYQSSRGAQVRALRKGDNAAAPSNQGKIAEEEDIGNVLLFHKGRFFPLMMPGRDIGQRFHFAHFVGMRDKVTNMTLYVACVQLTAGATAEAADVRLHEARQVLTILDALGRNDADRSHQSHIVCGDLNNQADDEPCVELLRDRFFSTHDLVGGPRWTAWHYRDDARAAAYDTYYTKNVEQAHRSDKAYQAEEEIHRFRRKDAGGYHGVFSKVRLVRDEIAARAHKKQQQQLTTPKTAPEVATPPPADTVAAAPAPSPASAPAPSDTAVRVDQLALLKESRKAKGITYNTQDFIFYDPSTLALHQVLDVPEDEEVNEAQLFPNHKLPSHHLPLFIDISWIDSFPDVAARTLKE", "values": [
      {"measurement": "soluble on expression in E. coli", "result": "not soluble"}
    ]},
    {"sequence": "SETRSPGLNNMKPQSLQLVLEEQVLALQQQMAENQAASWRKLKNSQEAQQRQATLVRKLQAKVLQYRSWCQELEKRLEATGGPIPQRWENVEEPNLDELLVRLEEEQQRCESLAEVNTQLRLHMEKADVVNKALREDVEKLTVDWK", "values": [
      {"measurement": "soluble on expression in E. coli", "result": "soluble"}
    ]},
    {"sequence": "SPCKYSRSEVVLTFFERSPLDQVLKNDNVHKIQPSFQSPVKISEIMRSNGFCLANTETIVIDHSIPNGRDQQLGVDQTEHLFENGSEFPSELEDGDDPAAYVTNLSYYHLVPFETDIWD", "values": [
      {"measurement": "soluble on expression in E. coli", "result": "soluble"}
    ]},
    {"sequence": "MSGSVPFIRRLAVIGVGLIGGSLARALRTAGAVGEIIGIDRDEANLRQAAELGVVDRAAATVAEGVAGADMVFLSVPVRAMAGVVREIAPHLAAGCIVTDGGSVKAEVVAACDPLMPAGTCFVGGHPIAGTEHSGVGASFATLYQGKRCILTPAATTDRDALATVARMWEAAGSEVVLMDPEKHDRVVAAISHLPHMVAYALVNAVEGYDRFEESILRYSAGGFRDFTRIASSDPAMWRDIALMNREGVLEMMDHFAAYFGQLRSLVAAGDAEGLERFFRDSKESRDAILLEHHHHHH", "values": [
      {"measurement": "soluble on expression in E. coli", "result": "soluble"}
    ]},
    {"sequence": "VYDNDIDTGAKNTLNLDEELQLGELSLDTIRSLEKLAPFGMDNKKPVFWLHDITVTQARTMGQNGAHLKFKVKQGKASFDVVAFNKGHLLQEFQQAQGLELAVTLSVNVWNGQTTLQ", "values": [
      {"measurement": "soluble on expression in E. coli", "result": "not soluble"}
    ]}
  ]
}
